Assay [1] deals with synthetic peptide … (antigen from mpf00920 polypeptide). Nature of the assay: ELISA on the antigen; pre-immune serum at 1000-fold dilution. For orientation: ELISA stands for enzyme-linked immunosorbent assay.
For assay [2] the target is unchanged. Nature of the assay: ELISA on the antigen; pre-immune serum at 16000-fold dilution.
The target is the same in assay [3]. Nature of the assay: ELISA on the antigen; pre-immune serum at 4000-fold dilution.
Assay [4] has the same target. Kind of assay: ELISA on the antigen; pre-immune serum at 2000-fold dilution.
For assay [5] the target is unchanged. Kind of assay: ELISA on the antigen; pre-immune serum at 8000-fold dilution.

On to “control serum (rabbit serum without immunization)”, for which the absorbance (490 nm) (absorbance (490 nm)) stood at 0.171 in assay [1]; 0.076 in assay [2]; 0.089 in assay [3]; 0.101 in assay [4]; 0.084 in assay [5].
